Earlier results in PMC4918944.
pKd: −log10 of the molar value.

Target: SecY (Bacillus subtilis) (UniProt P16336)
Sequence of UniProt P16336 (P16336 whole entry): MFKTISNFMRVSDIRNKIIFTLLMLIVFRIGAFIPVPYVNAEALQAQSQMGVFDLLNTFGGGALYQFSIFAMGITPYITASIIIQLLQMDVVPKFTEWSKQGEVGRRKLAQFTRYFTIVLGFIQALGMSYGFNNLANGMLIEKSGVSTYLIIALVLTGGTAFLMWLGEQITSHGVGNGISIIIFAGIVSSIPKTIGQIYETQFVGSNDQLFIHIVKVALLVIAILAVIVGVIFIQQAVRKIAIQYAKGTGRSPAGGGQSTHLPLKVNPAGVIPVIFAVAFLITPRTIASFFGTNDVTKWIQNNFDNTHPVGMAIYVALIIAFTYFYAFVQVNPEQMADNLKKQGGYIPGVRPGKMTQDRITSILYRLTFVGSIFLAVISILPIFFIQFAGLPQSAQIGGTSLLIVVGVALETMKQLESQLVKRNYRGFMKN

Question: With SecA (from UniProt P28366) as the substance, how does the pKd read?
Answer: 8.40
